Reference: patent US7063946B2, “Methods, reagents, kits and apparatus for protein function analysis” (Meso Scale Technologies, LLC., priority 2001, dated 2006)

How the values were obtained:
[1] = test system: N-end rule pathway ubiquitylation in reticulocyte lysates; assay: ECL ubiquitylation assay of EST clone proteins, FK2 antibody coated IPR plate; type: biochemical, rabbit
Experimental: The following EST clones in bacteria were obtained: IMAGE ID #, 3446518, 3446518, 3446518, 3914731 (RGS4), 3914731 (RGS4), 3914731 (RGS4) (Incyte, Palo Alto). Bacteria containing EST clones were grown in 2 ml LB with 50 μg/ml Amp, and DNA was isolated using QIAprep Spin Miniprep Kit (Qiagen). DNA yield was 5–20 μg.
Proteins were prepared from the EST clones in transcription-translation reaction mixtures (total volume 12.5 uL) as described in the Materials and Methods except for the addition of 1 μM Ub aldehyde (Calbiochem). Then 1 μl of the reaction product was mixed with 50 μl of BB1 supplemented with 20 mM AMP-PNP, 20 mM N-ethylmaleimide and 2 μg/ml Sulfo-TAG-labeled streptavidin in to each well of an IPR plate coated with FK2 antibody.
As previously reported, RGS4 is a substrate of the N-end rule-dependent ubiquitylation in reticulocyte lysates (Davydov and Varshavsky, 2000, J. Biol. Chem., 275:22931–22941). To determine if the protein produced from clone 3446518 was similarly ubiquitylated through the N-end rule pathway, the ECL ubiquitylation assay was performed in the presence of dipeptide inhibitors Arg-β-Ala (type 1 inhibitor of the N-end rule pathway), or Trp-Ala (type 2 inhibitor of the same pathway). As was shown on FIG. 2, the RGS4 signal was reduced 3–4 fold in the presence of Arg-β-Ala (a type 1 inhibitor of the N-end rule pathway), but not in the presence of Trp-Ala (a type 2 inhibitor of the N-end rule pathway) in agreement with the previous report that RGS4 is a type 1 N-end rule substrate in reticulocyte lysates (Davydov and Varshavsky, 2000, J. Biol. Chem., 275:22931–22941). In contrast, the dipeptides had little effect on the assay signal from clone 3446518 (FIG. 2). Thus, a different pathway of the ubiquitin system mediates ubiquitylation of the protein produced from clone 3446518.

[2] = test system: ubiquitylation in reticulocyte lysates; assay: 96-well screen of EST clones: ubiquitylation assay, FK2 antibody coated plate; type: biochemical, rabbit
Experimental: Transcription-translation reactions were assembled in a 96-well plate as described in Materials and Method in a total volume of 19 μl. The amounts of DNA in each reaction varied depending on DNA yields at purification stage, while the four positive control wells contained reactions with 20 μg/ml plasmid DNA. The reactions were incubated at 30° C. for 40 min.
After incubation, 1 μl of the TNT reaction was mixed with 50 μl of BB1 in an IPR plate coated with FK2 antibody (750 ng antibody per well) (see Materials and Methods).

pEY (poly Glu-Tyr) = assay: Tyrosine kinase activity assay of immobilized in vitro translated protein towards pEY; type: biochemical
Experimental: Proteins were produced in an in vitro transcription and translation reaction. […] The unbound components of the reaction containing endogenous kinases were removed by three washes with TT-buffer (25 mM Tris-HCl buffer pH 7.4 and 0.004% Triton), two five minutes washings with high-salt wash buffer (25 mM Tris-HCl buffer pH 7.4, 0.004% Triton, 1M NaCl and 5 mM DTT) and 3 more washes with TT-buffer. To these immobilized and purified proteins a tyrosine kinase substrate, 5 nM pEY (poly Glu-Tyr, Sigma, MO), was added in a 50 μl reaction solution containing 5 mM MgCl2, 5 mM MnCl2, 100 μM ATP, 25 mM Tris-HCl buffer pH 7.4, 0.05 mM Na3VO4, 0.004% TritonX-100, 2 mM DTT and EDTA-free protease inhibitor (Roche Molecular Biochemicals). This mixture was incubated with shaking at room temperature overnight to allow phosphorylation of the pEY substrate by the immobilized kinases. Following this incubation, 45 μl of this mixture was transferred to a streptavidin or avidin-coated NPT IPR plate coated with biotinylated anti-phosphotyrosine antibody (PY20, Zymed labs, CA) followed by incubation for 30 minutes at room temperature to allow the binding of the phosphorylated pEY substrate to the PY20 coated NPT plate. Following this binding step, 50 ng Sulfo-TAG labeled anti-phosphotyrosine in buffer containing 25 mM Tris-HCl buffer pH 7.4, 5 mM MgCl2, 0.05 mM Na3VO4, 0.004% TritonX-100, 2 mM DTT and 0.05% IgG was added followed by incubation at room temperature for 30 mm. The unbound reagents were removed by one time washing with water, and the TAG label was detected in presence of 150 μl IPR assay buffer (0.4 mM Gly-Gly buffer, pH 7.8, 1 mM EDTA, 0.1 M TPA). The ECL signals were measured using an imaging plate reader.

pEY = assay: In vitro kinase library screen: activity towards pEY; type: biochemical; details: 5 ul of expressed protein
Outline: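 ECL read-out: phosphorylated poly(Glu-Tyr) bound on a PY20-coated plate, then probed with Sulfo-TAG-labelled anti-phosphotyrosine. The reaction beforehand ran overnight at room temperature with 100 µM ATP, 5 mM MgCl2, 5 mM MnCl2 and 5 nM pEY substrate. Enzymes were TnT-expressed, biotinylated and immobilised, with stringent washes.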

[3] = test system: autophosphorylation (phosphotyrosine); assay: In vitro kinase library screen: autophosphorylation; type: biochemical
Outline: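 ECL read-out after 45 min with Sulfo-TAG anti-phosphotyrosine antibody. Before that, immobilized in vitro-translated biotinylated SYK or EphA7 autophosphorylated overnight at room temperature in Tris pH 7.4 containing 100 μM ATP plus Mn++ and Mg++ (5 mM each).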

B1: 3912628: IMAGE clone protein: RGS4 (protein, UniProt P49798 1-205, looked up)
Regulator of G-protein …: MCKGLAGLPASCLRSAKDMKHRLGFLLQKSDSCEHNSSHNKKDKVVICQRVSQEEVKKWAESLENLISHECGLAAFKAFLKSEYSEENIDFWISCEEYKKIKSPSKLSPKAKKIYNEFISVQATKEVNLDSCTREETSRNMLEPTITCFDEAQKKIFNLMEKDSYRRFLKSRFYLDLVNPSSCGAEKQKGAKSSADCASLVPQCA
- signal in ubiquitylation assay (in words) [1]: strong specific signal
- signal in ubiquylation screen (FIG. 2, in words) [2]: strong specific signal

B2: 3914731: IMAGE clone protein: RGS4 (protein, UniProt P49798 1-205, looked up)
Regulator of G-protein …: MCKGLAGLPASCLRSAKDMKHRLGFLLQKSDSCEHNSSHNKKDKVVICQRVSQEEVKKWAESLENLISHECGLAAFKAFLKSEYSEENIDFWISCEEYKKIKSPSKLSPKAKKIYNEFISVQATKEVNLDSCTREETSRNMLEPTITCFDEAQKKIFNLMEKDSYRRFLKSRFYLDLVNPSSCGAEKQKGAKSSADCASLVPQCA
- signal in ubiquitylation assay (in words) [1]: strong specific signal
- ECL readings, Experiment 1 ([1]; no dipeptide inhibitor): 41670
- ECL readings, Experiment 2 ([1]; no dipeptide inhibitor): 43729
- ECL readings, Experiment 3 ([1]; no dipeptide inhibitor): 41806
- signal in ubiquylation screen (FIG. 2, in words) [2]: strong specific signal

B3: 3920860: IMAGE clone protein: RGS4 (protein, UniProt P49798 1-205, looked up)
Regulator of G-protein …: MCKGLAGLPASCLRSAKDMKHRLGFLLQKSDSCEHNSSHNKKDKVVICQRVSQEEVKKWAESLENLISHECGLAAFKAFLKSEYSEENIDFWISCEEYKKIKSPSKLSPKAKKIYNEFISVQATKEVNLDSCTREETSRNMLEPTITCFDEAQKKIFNLMEKDSYRRFLKSRFYLDLVNPSSCGAEKQKGAKSSADCASLVPQCA
- signal in ubiquitylation assay (in words) [1]: strong specific signal
- signal in ubiquylation screen (FIG. 2, in words) [2]: strong specific signal

B4: 4485050: IMAGE clone protein: Fert2, fer (fms/fps related) protein kinase, testis specific 2 (protein, UniProt P70451 1-823, looked up)
Tyrosine-protein kinase Fer: MGFGSDLKNSQEAVLKLQDWELRLLETVKKFMALRIKSDKEYAYTLQNLCNQVDKESTVQVNYVSNVSKSWLLMIQQTEQLSRIMKTHAEDLNSGPLHRLTMMIKDKQQVKKSYVGIHQQIEAEMIKVTKTELEKLKSSYRQLIKEMNSAKEKYKEALAKGKETEKAKERYDKATMKLHMLHNQYVLALKGAQLHQSQYYDTTLPLLLDSVQKMQEEMIKALKGIFDDYSQITSLVTEEIVNVHKEIQMSVEQIDPSTEYNNFIDVHRTTAAKEQEIEFDTSLLEENENLQANEIMWNNLTADSLQVMLKTLAEELTQTQQMLLHKEAAVLELEKRIEESFETCEKKSDIVLLLGQKQALEELKQSVQQLRCTEAKCAAQKALLEQKVQENDGKEPPPVVNYEEDARSVTSMERKERLSKFESIRHSIAGIIKSPKSVLGSSTQVCDVISVGERPLAEHDWYHGAIPRIEAQELLKQQGDFLVRESHGKPGEYVLSVYSDGQRRHFIIQFVDNLYRFEGTGFSNIPQLIDHHFNTKQVITKKSGVVLLNPIPKDKKWVLNHEDVSLGELLGKGNFGEVYKGTLKDKTPVAIKTCKEDLPQELKIKFLQEAKILKQYDHPNIVKLIGVCTQRQPVYIIMELVPGGDFLTFLRKRKDELKLKQLVRFSLDVAAGMLYLESKNCIHRDLAARNCLVGENNTLKISDFGMSRQEDGGVYSSSGLKQIPIKWTAPEALNYGRYSSESDVWSFGILLWETFSLGVCPYPGMTNQQAREQVERGYRMSAPQNCPEEVFTIMMKCWDYKPENRPKFNDLHKELTVIKKMIT
- fold higher ECL signal than background produced by Mock (Luciferase) (pEY (poly Glu-Tyr); 0.5 to 1 μl of TnT reaction): 1000 to 1100 fold
- ECL signal (pEY (poly Glu-Tyr); +EDTA): 1,287
- ECL signal (pEY (poly Glu-Tyr); Control (Table 9)): 1,637,307
- ECL signal (pEY (poly Glu-Tyr); DNA 0.001 μg/5 μl): 4,432
- ECL signal (pEY (poly Glu-Tyr); DNA 0.003 μg/5 μl): 129,797
- ECL signal (pEY (poly Glu-Tyr); DNA 0.010 μg/5 μl): 1,440,103
- ECL signal (pEY (poly Glu-Tyr); DNA 0.020 μg/5 μl): 1,463,489
- ECL signal (pEY (poly Glu-Tyr); DNA 0.040 μg/5 μl): 1,523,121
- ECL signal (pEY (poly Glu-Tyr); DNA 0.060 μg/5 μl): 1,553,370
- ECL signal (pEY (poly Glu-Tyr); DNA 0.080 μg/5 μl): 1,608,671
- ECL signal (pEY (poly Glu-Tyr); DNA 0.100 μg/5 μl): 1,687,039
- ECL signal (pEY (poly Glu-Tyr); DNA 0.125 μg/5 μl): 1,626,868
- ECL signal (pEY (poly Glu-Tyr); complete reaction): 1,608,671
- ECL signal (pEY (poly Glu-Tyr); no Mg, no Mn): 2,851
- ECL signal (pEY (poly Glu-Tyr); plasmid +, no pEY): 1,309
- ECL signal (pEY (poly Glu-Tyr); plasmid +, no tRNA): 1,752
- HTS signal (pEY): 952,661
- ECL signal [3]: 1,350,546
